# Laboratory results from patent US20100080806A1 (INSTITUTE OF BASIC MEDICAL SCIENCES OF CHINESE ACADEMY OF …, published 2010).
# Tests used:
# [1] = target: T1, recombinant human DR5 extracellular domain protein expressed in E. coli (human, UniProt O14763 56-210); test: ELISA on plate-coated recombinant DR5 extracellular domain, single-site fit (GraphPad)
# T1 construct: extracellular domain; also called death receptor 5; TRAIL-R2
# Method: (§1) ELISA plates (Costar, USA) were coated with recombinant human DR4 or DR5 extracellular domain protein expressed in E. coli over night, blocked with 5% nonfat milk at room temperature for two hours. […] The absorbency at 492 nm was measured on a microtiter reader of enzyme-labelled machine, Wellscan MK3 (Thermo Labsystems, Finland).
# [2] = target: T2, recombinant human DR4 extracellular domain protein expressed in E. coli (human, UniProt O00220 24-239); test: ELISA, plate coated with recombinant DR4 extracellular domain
# T2 construct: extracellular domain; also called death receptor 4; TRAIL-R1
# Method: as §1
# T2 sequence (O00220 24-239): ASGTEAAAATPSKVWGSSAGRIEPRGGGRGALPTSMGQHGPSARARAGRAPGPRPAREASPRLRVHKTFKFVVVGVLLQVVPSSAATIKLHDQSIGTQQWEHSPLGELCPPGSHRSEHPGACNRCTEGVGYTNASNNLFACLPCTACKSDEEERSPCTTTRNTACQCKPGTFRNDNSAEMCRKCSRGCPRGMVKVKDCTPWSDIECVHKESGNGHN
binder,measurement,setting,value
"monoclonal antibody AD5-10 against human TRAIL receptor DR5 (antibody, IgG3, V domains shown, Murine hybridoma antibody (CGMCC 1192), subtype IgG3 kappa; also called anti-human TRAIL receptor DR5 mAb; mAb DR5) VH: QIQLVQSGPELKKPGETVKISCKASGYTFTDFSMNWVKQAPGKGLKWMGWINTETGEPTYADDFKGRFALSMETSASTAYLQINNLKNEDTATYFCVRIDYWGQGTTLTVSS VL: DVVMTQTPLSLPVSLGDQASISCRSSQSLVHSNGNTYLHWYLQKPGQSPKLLIYKVSNRFSGVPDRFSGSGSGTDFTLKISRVEAEDLGVYFCFQSTHVPHTFGGGTKLEIKR",Kd,[1],0.3 nM
same,binding result,[2],no binding
